The target in assay [1] is T1, TWEAKR (TNFRSF12A, FN14), human, on tumor cell lines (human, UniProt Q9NP84 28-129). Nature of the assay: cell-based or functional assay.
Assay [2] deals with T1, TWEAKR (TNFRSF12A, FN14), human, on …. Nature of the assay: FACS, SKOV-3 cells, 10 ug/ml.
Description: (§1) To determine the binding characteristics of the anti-TWEAKR antibodies on mouse and human cancer cell lines, binding was tested by flow cytometry to a panel of cell lines. […] Cells were suspended at approximately 10⁵ cells/well in FACS buffer (PBS without Ca/Mg, containing 3% FCS, Biochrom). Cells were centrifuged (250 g, 5 min, 4° C.) and supernatant discarded. Cells were resuspended in dilutions of the antibodies of interest (10 μg/ml in 80 μl if not indicated otherwise) in FACS buffer, and incubated on ice for 1 h. […] After incubation for 1 h on ice cells were again washed with cold FACS buffer, resuspended in 1000 FACS buffer and analyzed by flow cytometry using a FACS-Array (BD Biosciences). Results are calculated as Geo Mean of fluorescence detected by the antibody of interest subtracted by background fluorescence as measured by detection with the secondary antibody alone. Values are scored according to the following system: Geo Mean−Geo Mean of secondary antibody alone >10: +, >100: ++, >1000: +++, 10000: ++++, close to category border in ( ).
For assay [3] the target is unchanged. Nature of the assay: cell-based or functional assay. This is another data set of the same source.
The target is the same in assay [4]. Nature of the assay: FACS, NCI-H322 cells, 10 ug/ml.
Assay [5] concerns the target T2, TPP-2305 (hTNFRSF12Aaa28-80) (Human, UniProt Q9NP84 28-80).
T2 construct: monomeric extracellular domain, bought; also called purified recombinant human TWEAKR protein; soluble monomeric TWEAKR
Nature of the assay: SPR (Biacore T100), IgG captured, TPP-2305 injected, 1:1 model. On the technique in general: SPR reads the build-up and loss of mass on a sensor chip optically.
Description: Binding affinities of anti-TWEAKR antibodies were determined by surface plasmon resonance analysis on a Biacore T100 instrument (GE Healthcare Biacore, Inc.). Antibodies were immobilized onto a CM5 sensor chip through an indirect capturing reagent, anti-human IgG(Fc). […] Anti-TWEAKR antibodies were injected at a concentration of 10 μg/ml at 10 μl/min for 10 sec.
Sensorgrams were generated after in-line reference cell correction followed by buffer sample subtraction. The dissociation equilibrium constant (KD) was calculated based on the ratio of association (kₒₙ) and dissociation rated (koff) constants, obtained by fitting sensorgrams with a first order 1:1 binding model.

For assay [6], the target named is T1, TWEAKR (TNFRSF12A, FN14), human, on …. Kind of assay: FACS, 786-O cells, 10 ug/ml. (In flow cytometry, cells or beads pass a laser one at a time.)
Description: as §1
Assay [7] shares this target. Nature of the assay: FACS, HT29 cells, 10 ug/ml.
Assay [8] deals with T3, TPP-2614 (TweakR-ECD-34-68-hIgGFc-His-D47A) (human).
T3 construct: also called D47A TWEAKR mutein
Kind of assay: ELISA, IgG coated 1 ug/ml, TWEAKR variant 250 ng/ml, anti-HIS HRP (FIG. 6C). In general terms: In an ELISA, binding on a coated surface is turned into a signal by an enzyme label.
Description: Antibodies were coated (1 μg/ml), TWEAKR variant was added at 250 ng/ml, detection via anti-HIS HRP. […] Antibodies were coated (1 μg/ml), TWEAKR variant was added 250 ng/ml, detection via anti-HIS HRP.

The target in assay [9] is T1, TWEAKR (TNFRSF12A, FN14), human, on …. Nature of the assay: FACS, A375 cells, 10 ug/ml.
Description: as §1
The target is the same in assay [10]. Nature of the assay: cell-based or functional assay. The source holds these as a separate data set.
The target is the same in assay [11]. Kind of assay: FACS, WiDr cells, 10 ug/ml.
Description: as §1
Assay [12] addresses T4, TPP-1779 (RAT-TNFRSF12Aaa28-80-hIgG1-Fc) (rat).
T4 construct: bivalent antigen; also called rat TWEAKR Fc
Kind of assay: SPR, TWEAKR-Fc immobilized, IgG injected, bivalent analyte model (avidity mode).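 Also: kd derived as the ratio of fitted dissociation to association rate constants, with sensorgrams corrected against a reference flow cell and a buffer blank before fitting.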
Description: (§2) Sensorgrams were generated after in-line reference cell correction followed by buffer sample subtraction. The dissociation equilibrium constant (KD) was calculated based on the ratio of association (kₒₙ₁) and dissociation rated (koff1) constants, obtained by fitting sensorgrams with a bivalent analyte model using Biavaluation Software (version 4.0).

The target of assay [13] is T5, TPP-1846 (MAC-TNFRSF12Aaa28-80-hIgG1-Fc) (macaca fascicularis).
T5 construct: bivalent antigen; also called mac fasc TWEAKR Fc
The description is as above.
Description: as §2

Assay [14] concerns the target T6, TPP-1777 (DOG-TNFRSF12Aaa28-80-hIgG1-Fc) (dog).
T6 construct: bivalent antigen; also called dog TWEAKR Fc
Described as above.
Description: as §2

Assay [15] concerns the target T7, TPP-599 (HUMAN-TNFRSF12Aaa28-80-hIgG1-Fc) (human).
T7 construct: dimeric; also called human TWEAKR Fc; TWEAKR-Fc
Described as above.
Description: as §2

The target of assay [16] is T8, TPP-1778 (PIG-TNFRSF12Aaa28-80-hIgG1-Fc) (pig).
T8 construct: bivalent antigen; also called pig TWEAKR Fc
Described as above.
Description: as §2

Assay [17] addresses T9, TPP-601 (MURINE-TNFRSF12Aaa28-80-hIgG1-Fc) (murine).
T9 construct: dimeric; also called murine TWEAKR Fc
The description is as above.
Description: as §2

Assay [18] has as its target TPP-1988 (hTNFRSF12Aaa28-80-M50A-hIgG1-Fc) (human). Kind of assay: ELISA, TWEAKR-Fc coated 62 ng/ml, biotin-IgG titrated; + means IC50 1 to 150 pM.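 Also: biotinylated IgG binding to immobilized TWEAKR-Fc muteins, detected with Streptavidin-HRP and Amplex Red, IC50 derived from fitted dose-response curves of twofold serial dilutions.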
Description: (§3) To collect dose-response data, the different TWEAKR-Fc muteins were coated with a low concentration (62 ng/ml) in a 384-well Maxisorb ELISA plate and a serial 2fold dilution of biotinylated IgG starting with a concentration of 100 nM was used as soluble binding partner. Detection was done with Streptavidin-HRP and Amplex Red.
(§4) The dose-response data were fitted and IC50s determined.
The target of assay [19] is TPP-1989 (hTNFRSF12Aaa28-80-H60K-hIgG1-Fc) (human). The assay is described as above.
Description: as §3, §4
For assay [20], the target named is TPP-1986 (hTNFRSF12Aaa28-80-T33Q-hIgG1-Fc) (human). The assay is described as above.
Description: as §3, §4
Assay [21] has as its target TPP-1987 (hTNFRSF12Aaa28-80-S40R-hIgG1-Fc) (human). The assay is described as above.
Description: as §3, §4
For assay [22], the target named is T7, TPP-599 …. The description is as above.
Description: as §3, §4
Assay [23] has as its target TPP-1990 (hTNFRSF12Aaa28-80-L65Q-hIgG1-Fc) (human). Described as above.
Description: as §3, §4
In assay [24] the target is T10, TPP-2203 (TWEAKR-ECD-34-68-hIgGFc-His) (human).
T10 construct: dimeric; also called TWEAKR(34-68)-Fc fusion protein; truncated ectodomain 34-68
Nature of the assay: ELISA, TPP-2203 coated at 1 µg/ml, biotinylated IgG at 0.08 µg/ml (open bar) and 0.3 µg/ml (filled bar), Streptavidin-HRP, Amplex Red.
Description: (§5) Detection was done with Streptavidin-HRP and Amplex-Red substrate.
(§6) To analyze for binding, 1 μg/ml of the respective dimeric TWEAKR-Fc construct were coated and, 0.3 μg/ml and 0.08 μg/ml of biotinylated IgG were used as soluble binding partner. Detection was done with Streptavidin-HRP and Amplex-Red substrate.

Assay [25] has as its target T11, TPP-2202 (TWEAKR-ECD-28-80-hIgGFc-His) (human).
T11 construct: dimeric; also called TWEAKR-Fc fusion protein; full ectodomain 28-80
Kind of assay: ELISA, TPP-2202 coated at 1 µg/ml, biotinylated IgG at 0.08 µg/ml (open bar) and 0.3 µg/ml (filled bar), Streptavidin-HRP, Amplex Red.
Description: as §5, §6

The target of assay [26] is TPP-2683 (hTNFRSF12Aaa28-80-R56P-hIgG1-Fc) (human). Kind of assay: ELISA, TWEAKR-Fc coated 62 ng/ml, biotin-IgG titrated; + means IC50 1 to 150 pM.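 Also: biotinylated IgG binding to immobilized TWEAKR-Fc muteins, detected with Streptavidin-HRP and Amplex Red, IC50 derived from fitted dose-response curves of twofold serial dilutions.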
Description: as §3, §4

This is an account of results in patent publication US20160237160A1 (Bayer, published 2016).

T11 sequence (chain, as listed by the source limits assumed): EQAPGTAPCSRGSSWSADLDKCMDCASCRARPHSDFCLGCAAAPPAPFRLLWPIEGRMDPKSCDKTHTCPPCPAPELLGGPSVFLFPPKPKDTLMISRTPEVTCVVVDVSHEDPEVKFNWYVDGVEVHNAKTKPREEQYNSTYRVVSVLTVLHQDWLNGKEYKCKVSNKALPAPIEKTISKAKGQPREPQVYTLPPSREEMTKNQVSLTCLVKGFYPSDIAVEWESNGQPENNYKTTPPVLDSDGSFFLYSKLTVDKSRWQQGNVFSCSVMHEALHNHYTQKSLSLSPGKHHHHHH

B1: TPP-1538 (antibody, human IgG1, kappa)
heavy: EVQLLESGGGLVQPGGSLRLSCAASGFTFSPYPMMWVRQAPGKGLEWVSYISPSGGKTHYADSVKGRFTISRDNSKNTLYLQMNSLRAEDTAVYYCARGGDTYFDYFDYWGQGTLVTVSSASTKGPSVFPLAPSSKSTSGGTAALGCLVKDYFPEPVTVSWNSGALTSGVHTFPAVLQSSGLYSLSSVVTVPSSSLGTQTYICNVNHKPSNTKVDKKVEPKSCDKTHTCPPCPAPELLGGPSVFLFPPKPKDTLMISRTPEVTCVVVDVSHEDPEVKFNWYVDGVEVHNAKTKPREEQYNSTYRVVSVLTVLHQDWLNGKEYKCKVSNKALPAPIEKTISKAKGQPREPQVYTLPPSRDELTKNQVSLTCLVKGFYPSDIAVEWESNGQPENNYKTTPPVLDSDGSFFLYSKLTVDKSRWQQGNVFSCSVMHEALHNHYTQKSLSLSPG
light: AQDIQMTQSPATLSASVGDRVTITCRASQSISSYLNWYQQKPGKAPKLLIYAASSLQSGVPSRFSGSGSGTDFTLTISSLQPEDFATYYCQQSYSSPGITFGPGTKVEIKRTVAAPSVFIFPPSDEQLKSGTASVVCLLNNFYPREAKVQWKVDNALQSGNSQESVTEQDSKDSTYSLSSTLTLSKADYEKHKLYACEVTHQGLSSPVTKSFNRGEC
notes: Human IgG1
The term koff denotes the rate constant with which the complex falls apart. A low value points to a long-lived complex. A word on the kon: it is the rate constant with which the complex forms. The low end stands for slow association, the high end for fast association. As to B1, the “% Inhibition of proliferation, 786-O cells, 96h, 100 ug/ml” value in assay [1] came out at 75%. Also, the “% Inhibition of proliferation, A253 cells, 72h, 100 ug/ml” value in [1] was more than 100%. Moreover, the “% Inhibition of proliferation, HT-29 cells, 24h, 100 ug/ml” value in [1] stood at 97%. In addition, the “% Inhibition of proliferation, WiDr cells, 96h, 100 ug/ml” value in [1] stood at 55%. Moreover, the “GeoMean of Fluorescence minus GeoMean with the secondary antibody only” value was 1630 in assay [2]; 98 in assay [4]; 17500 in assay [6]; 634 in assay [7]; 229 in [9]; 1190 in [11]. In addition, the “IL-8 release from A375 cells at 100 ug/ml, % of the activation by 300 ng/ml TWEAK ligand” value in [3] turned out to be 134%. For the same molecule, the Kd was 27.6 nM in [5]; 20.4 nM in assay [12]; 21.1 nM in [13]; 25 nM in [14]; 15.4 nM in assay [15]; 22.7 nM in [16]. For the same molecule, in assay [17], the Kd amounted to 4.7 nM. The molecule further registered a dissociation rate constant (koff) in assay [5] of 0.11 s⁻¹. The molecule also registered a kon in assay [5] of 4.2e+06 M⁻¹ s⁻¹. In [8], the “% binding normalized by wt binding signal” value was less than 5%. The “Fold induction of Caspase 3/7, 786-O cells, 100 ug/ml” value in assay [10] worked out at 1.81 fold. The “Fold induction of Caspase 3/7, HT-29 cells, 100 ug/ml” value in assay [10] came to 2.44 fold. In addition, the “Fold induction of Caspase 3/7, NCI-H322 cells, 100 ug/ml” value in [10] worked out at 1.49 fold. Further, the “Fold induction of Caspase 3/7, WiDr cells, 100 ug/ml” value in [10] turned out to be 1.53 fold.

B2: 18.3.3(TPP-2193) (antibody, mouse IgG2a, kappa, V domains shown)
VH: EVKLGESGGGLVQPGGSMKLSCVASGFPFTKYWMNWVRQSPEKGLEWVAEIRLKSDNYATHYAESAKGRFTISRDDSRSSVYLQMNNLRAEDTAIYYCSPTYADTMDYWGQGTSVTVSS
VL: DIVLTQSPASLAVSLGQRATISCKASQSVSTSTYSYMQWYQQRPGQSPKLLIKYASKLDSGVPARFSGSGSGTDFTLNIHPVEEEDTATYYCQHSWELPYTFGGGTRLEIKR
notes: Murine IgG2a; variable domains from WO2009/020933 with constant region added
B2: in assay [5], the Kd came out at 1.7 nM. Moreover, the koff in assay [5] is 0.0285 s⁻¹. The same molecule displayed a kon in [5] of 1.64e+07 M⁻¹ s⁻¹. Also, the binding result in [18], in assay [19], in assay [20], in [21], in [22] and in [23] was “binds” in each case.

B3: TPP-2077 (antibody, human IgG1, kappa)
heavy: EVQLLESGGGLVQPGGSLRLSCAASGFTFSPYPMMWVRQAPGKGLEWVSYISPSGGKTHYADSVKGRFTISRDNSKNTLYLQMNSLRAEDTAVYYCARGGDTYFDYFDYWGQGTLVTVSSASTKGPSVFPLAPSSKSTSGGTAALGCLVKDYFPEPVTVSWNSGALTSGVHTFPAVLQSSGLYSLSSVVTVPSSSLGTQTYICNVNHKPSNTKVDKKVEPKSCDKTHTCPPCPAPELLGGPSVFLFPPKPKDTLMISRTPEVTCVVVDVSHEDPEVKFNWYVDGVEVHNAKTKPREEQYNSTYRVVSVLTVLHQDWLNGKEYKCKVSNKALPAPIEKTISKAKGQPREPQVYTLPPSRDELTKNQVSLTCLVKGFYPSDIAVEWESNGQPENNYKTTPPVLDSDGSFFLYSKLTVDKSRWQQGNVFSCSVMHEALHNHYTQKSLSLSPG
light: DIQMTQSPATLSASVGDRVTITCRASQSISSYLNWYQQKPGKAPKLLIYAASSLQSGVPSRFSGSGSGTDFTLTISSLQPEDFATYYCQQSYSSPGITFGPGTKVEIKRTVAAPSVFIFPPSDEQLKSGTASVVCLLNNFYPREAKVQWKVDNALQSGNSQESVTEQDSKDSTYSLSSTLTLSKADYEKHKLYACEVTHQGLSSPVTKSFNRGEC
notes: Human IgG1
In the case of B3, the Kd in assay [5] was 28.9 nM; in [12], 21.2 nM; in [13], 16.8 nM; in assay [14] it was 24.5 nM; in [15], 10.3 nM; in assay [16] it was 22.4 nM. The Kd in assay [17] was 4.2 nM. In assay [5], this molecule came in with a koff of 0.086 s⁻¹. The same molecule displayed an on-rate constant (kon) in assay [5] of 3e+06 M⁻¹ s⁻¹. The “% binding normalized by wt binding signal” value in assay [8] is less than 5%.

B4: P3G5(TPP-2195) (antibody, mouse IgG2a, kappa, V domains shown)
VH: QVQLQQSGPEVVRPGVSVKISCKGSGYTFTDYGIHWVKQSHAKSLEWIGVISTYNGYTNYNQKFKGKATMTVDKSSSTAYMELARLTSEDSAIYYCARAYYGNLYYAMDYWGQGTSVTVSS
VL: DIVLTQSPASLAVSLGQRATISCRANKSVSTSSYSYMHWYQQKPGQPPKLLIKYASNLESGVPARFSGSGSGTDFILNIHPVEEEDAATYYCQHSRELPFTFGSGTKLEIKR
notes: Murine IgG2a; variable domains from WO2009/140177 with constant region added
Molecule B4 came in with a Kd in assay [5] of 0.5 nM. The off-rate (koff) in assay [5] stood at 0.00122 s⁻¹. Besides, in [5], the on-rate (kon) is 2.31e+06 M⁻¹ s⁻¹. The binding result in assay [24], in [25], in assay [26], in [18], in [19] and in [20] was “binds” each time. In addition, the binding result in [21], in assay [22] and in assay [23] was “binds” throughout.
